Assay [1] relates to HLA-DR1 molecules. The experiment in a line: release of biotin-labeled hMBP(90-102) from HLA-DR1 without unlabeled antigenic peptide (assay I). It counts as binding, human. Particulars: for Relative Release: Table 36, fraction of o.d. of positive control (PBS only = 1.0; negative control = 0.0).
For assay [2], the target named is T1, murine E^d MHC class II allele (Mus musculus, UniProt P01904+P01915).
T1 sequence (P01904 26-255): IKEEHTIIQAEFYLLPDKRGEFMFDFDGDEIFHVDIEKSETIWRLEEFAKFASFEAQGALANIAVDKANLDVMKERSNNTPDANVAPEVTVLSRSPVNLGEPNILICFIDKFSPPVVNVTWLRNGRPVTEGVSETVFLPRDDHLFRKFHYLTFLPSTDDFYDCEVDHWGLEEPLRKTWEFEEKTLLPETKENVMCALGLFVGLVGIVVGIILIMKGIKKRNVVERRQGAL
T1 sequence (P01915 27-264 limits assumed): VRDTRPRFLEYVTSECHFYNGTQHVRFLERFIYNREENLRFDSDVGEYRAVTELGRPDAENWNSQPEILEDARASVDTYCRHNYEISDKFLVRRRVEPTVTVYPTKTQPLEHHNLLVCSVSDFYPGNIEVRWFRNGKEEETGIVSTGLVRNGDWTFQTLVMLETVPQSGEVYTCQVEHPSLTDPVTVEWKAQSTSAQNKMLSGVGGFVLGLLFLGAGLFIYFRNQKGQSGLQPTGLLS
The experiment in a line: simultaneous assay, E^d allele (A20 APC, G28.C9 T hybridoma, HEL106-116; HT-2 [3H]TdR readout). On the set-up: The A20 and CH27 B cell lymphoma lines express H-2^d and H-2^k alleles, respectively; endogenous in cells; host or cells: A20 B cell lymphoma (mitomycin C-treated or paraformaldehyde-fixed). Particulars: Table 1, 0.4 μM HEL106-116, supernatant 1:4. Type of assay: cell-based. The protocol: (§1) Examples 1-4 (Tables 1-18) will be briefly considered in order to establish the concept of tolerance discussed above. These examples describe experimental results observed in the so-called “simultaneous” assay. In the simultaneous assay four principle components are cultured together for a 24 hour period. The components of this culture, which are added simultaneously, are: (a) an antigenic peptide characterized by the ability to bind specifically into the antigenic peptide binding groove of an MHC class II molecule, (b) mitomycin C-treated, MHC class II-positive antigen presenting cells (APC) bearing the MHC class II allele required for binding of the specific antigenic peptide, and presentation of the specific antigenic peptide to the antigenic peptide-specific T cell hybridoma, (c) an effector compound of the present invention, and (d) an MHC class II allele-restricted T cell hybridoma specific for the antigenic peptide and the MHC class II allele restricting its presentation. Following incubation of this primary culture, an aliquot of its supernatant is transferred into a second culture well for incubation with an interleukin-dependent lymphoblastoid cell line. The degree of stimulation of that second, indicator cell by the interleukins which had been released from the activated T cell hybridoma in the primary culture is measured by quantitating tritiated thymidine deoxyribose {[^3H]TdR} uptake into the DNA of the HT-2 indicator cells of that second culture.
(§2) In the “simultaneous assay” the four components of the assay are cultured together for a 24 h period. The components of this primary culture, added at the same time or simultaneously, are: (a) the antigenic peptide, (b) mitomycin C-treated, MHC class II-positive antigen presenting cells (APC) with the MHC class II allele required for binding of the specific antigenic peptide and its presentation to the antigenic peptide-specific T cell hybridoma, (c) an AE101 series effector peptide, and (d) MHC class II allele-restricted T cell hybridoma specific for the antigenic peptide and the MHC class II allele restricting its presentation. At the end of the incubation of this primary culture, an aliquot of its supernatant is transferred into a second culture well for incubation with an interleukin-dependent lymphoblastoid cell line. The degree of stimulation of that second, indicator cell by the interleukins which had been released from the activated T cell hybridoma in the primary culture is measured by quantitating tritiated thymidine deoxyribose {[^3H]TdR} uptake into the DNA of the HT-2 indicator cells of that second culture.
(§3) For these various assays, the following antigenic peptides were used: HEL11-25, hen egg lysozyme 11-25, AMKRHGLDNYRGYSL(A^d) (SEQ ID NO:5); HEL46-61, hen egg lysozyme 46-61, NTDGSTDYGILQINSR(Ak) (SEQ ID NO:6); HEL106-116, hen egg lysozyme 106-116, NAWVAWRNRCK (E^d) (SEQ ID NO:7); PGCC81-104, pigeon cytochrome c 81-104, […] (Ek) (SEQ ID NO:8), and THMCC82-103, tobacco hornworm moth cytochrome c 82-103, […] (Ek) (SEQ ID NO:9). AE101 series peptides were obtained from commercial sources. In general, the purity and composition of each peptide was confirmed by HPLC separation and mass spectrometry. The native protein antigens were HEL, hen egg lysozyme, and PGCC, pigeon cytochrome C. They were obtained from commercial sources.
(§4) For the experiments of these Examples, several T cell hybridomas, which are specific for certain antigenic peptides, were used. The TPc9.1 T hybridoma is specific for pigeon cytochrome C 81-104 peptide presented on the murine class II MHC allele E^k. The TPc9.1 hybridoma responds heteroclitically to tobacco hornworm moth cytochrome c 82-103 on E^k. The 3A9 T hybridoma is specific for hen egg lysozyme 46-61 on A^k. The 9.30.B2 hybridoma is specific for hen egg lysozyme 11-25 on A^d, and the G28.C9 hybridoma is specific for hen egg lysozyme 106-116 on E^d. […]

The subject of assay [3] is HLA-DR1 molecules. The experiment in a line: release of biotin-labeled hMBP(90-102) from HLA-DR1 in the presence of unlabeled hMBP (assay II). It counts as binding, human.
The test system of assay [4] is murine E^k MHC class II allele. Nature of the assay: simultaneous assay, E^k allele (CH27 APC, TPc9.1 T hybridoma, THMCC82-103 or PGCC81-104). It counts as cell-based. Particulars: Table 1, 0.075 μM THMCC82-103, supernatant 1:2. The protocol:
as §1, §2, §3, §4

In assay [5] the test system is HLA-DR1 molecules. The experiment in a line: exchange of biotinylated hMBP(90-102) into antigenic peptide-loaded HLA-DR1 (assay III). It counts as binding, human. The note with it: Table 38; HLA-DR1 preloaded with unlabeled hMBP(90-102) 50 μM; exchange with biotin-labeled hMBP(90-102) 50 μM, 37° C., 1 h; fraction of positive control o.d.; no enhancement = 0.08.
Assay [6] has as its target T2, HLA-DR1 molecules (Homo sapiens, UniProt P01903+P01911, A100R/D57E/F55L/F60I/F76Y/I96L/L162R/M171V/P40L/Q125E/R42F/V115G/Y59C).
T2 construct: The HLA-DR alpha gene was truncated after Asn^192 to remove transmembranal and cytoplasmic regions from the protein product; A gene coding for the HLA-DR1 beta chain was truncated after position Lys^198, again to delete the transmembranal region; made in house; host or cells: insect cell line printed as HS / H5 (Invitrogen), co-infected with two baculoviruses; concentrated culture supernatant captured on 12CA5 antibody
The experiment in a line: binding of biotin-labeled hMBP(90-102) to "empty" HLA-DR1 (assay IV). The note with it: Table 39; AE101 series compound 64 μM; biotin-labeled hMBP(90-102) 50 μM, 37° C., 1 h; no enhancement = 1.

Assay [7] addresses soluble HLA-DR1 (HLA-DR alpha truncated after Asn192 with a C-terminal nine amino acid HA epitope tail; HLA-DR1 beta truncated after Lys198), made in Baculovirus-infected insect cells (human). The experiment in a line: loading ELISA: empty tethered HLA-DR1 with biotin-hMBP(90-102) 50 uM and AE peptide 64 uM, 1 h 37 C; biotin bound read by avidin-HRP. (In general: ELISA stands for enzyme-linked immunosorbent assay.)

Assay [8] has the same target. The experiment in a line: release ELISA: soluble HLA-DR1 tethered by 12CA5 and preloaded with biotin-hMBP(90-102); AE peptide 64 uM, 1 h 37 C, no unlabeled peptide; biotin still bound read by avidin-HRP (1.0 = PBS control, 0.0 = no DR1; low value = released).
For assay [9] the target is unchanged. The experiment in a line: exchange ELISA: tethered HLA-DR1 preloaded with unlabeled hMBP(90-102) 50 uM, washed; AE peptide plus biotin-hMBP(90-102) 50 uM, 1 h 37 C; biotin bound as fraction of positive control (overnight loading).
The mark [10] stands for this setting: AE peptide 16 μM (second value).

On to YRMKLPKSAK [AE108], for which, in assay [1] (AE101 series compound 64 μM), the “Relative Release” value was found to be 1.14. Besides, the “Relative Release, Without unlabeled hMBP(90-102), 1 μM” value in [1] (Table 37, AE101 series compound 1 μM, no unlabeled hMBP(90-102)) stood at 0.52. Moreover, the “Relative Release, Without unlabeled hMBP(90-102), 64 μM” value in [1] (Table 37, AE101 series compound 64 μM, no unlabeled hMBP(90-102)) stood at 0.31. Further, the “Times Baseline Response, E^d” value in assay [2] (setting [10]) was found to be 11.6; in assay [2] (AE peptide 64 μM (first value)) it was 32.0. In addition, the “Relative Release, With unlabeled hMBP(90-102), 1 μM” value in [3] (Table 37, AE101 series compound 1 μM, unlabeled hMBP(90-102) 250 μM) is 0.00. Moreover, in [3] (Table 37, AE101 series compound 64 μM, unlabeled hMBP(90-102) 250 μM), the “Relative Release, With unlabeled hMBP(90-102), 64 μM” value stood at 0.14. The figures for the “Times Baseline Response, E^k” value in assay [4] (setting [10]) and in assay [4] (AE peptide 64 μM (first value)) were 0.9 and 1.2, respectively.
For AE403 (MKLPKPPKPV), the “Relative Release” value in assay [1] (AE101 series compound 64 μM) worked out at 0.64. In addition, the “Relative Binding” value in assay [5] was 0.40. For the same molecule, the “Relative Enhancement” value in [6] amounted to 0.47.
As to “AE401: The N-terminal portion of AE100 (LRMKLPKPP)”, the “release of biotin-labeled hMBP(90-102) from HLA-DR1 without second unlabeled antigenic peptide, in words” value in assay [1] (Table 36 (compounds tested at 64 μM)) is recorded as “retained capacity to release”. Besides, the “Relative Release” value in assay [1] (AE101 series compound 64 μM) is listed as 0.16. Further, the “Relative Binding” value in assay [5] turned out to be 0.45. Moreover, in [6], the “Relative Enhancement” value is listed as 4.29.
As to AE402 (LRMKLPKPPKPV), the “Relative Release” value in assay [1] (AE101 series compound 64 μM) came to 0.65. Moreover, the “Relative Binding” value in assay [5] is on record as −0.03. For the same molecule, the “Relative Enhancement” value in assay [6] was found to be 0.33.
As to “unlabeled hMBP(90-102): human myelin basic protein (hMBP) peptide (90-102), antigenic peptide binding HLA-DR1, unlabeled (HLIRLFSRDAPGR) [reference compound]”, the “release of biotin-labeled hMBP(90-102) (Relative Release)” value in [3] (unlabeled hMBP(90-102) (250 μM) alone without AE101 series compounds) was 0.81.
Take YRMKLPKSAKPV [AE107]: in assay [7], the Relative Enhancement (of biotin-hMBP(90-102) binding to empty HLA-DR1) (relative to no AE peptide = 1) came to 2.59. The Relative Release (fraction of positive control o.d.) in assay [8] was -0.07. For the same molecule, the Relative Binding (of biotin-hMBP(90-102) to HLA-DR1) (fraction of positive control o.d.) in assay [9] amounted to 1.04.
As for YRMKLPKPPKPVSKMR [AE100], the Relative Enhancement (of biotin-hMBP(90-102) binding to empty HLA-DR1) (relative to no AE peptide = 1) in assay [7] was found to be 3.44. For the same molecule, the Relative Release (fraction of positive control o.d.) in assay [8] was 0.37. In assay [9], the Relative Binding (of biotin-hMBP(90-102) to HLA-DR1) (fraction of positive control o.d.) was found to be 0.31.
In the case of PKSAKPVSQMR [AE104], the Relative Release (fraction of positive control o.d.) in [8] is 0.02.
Take SAKPVSQMR [AE105]: in assay [8], the Fraction of biotin-hMBP still bound (fraction of positive control o.d.) was determined as 0.16.
As to Ac-LRMKLPKPPKPV-NH2 [AE402], the Relative Enhancement (of biotin-hMBP(90-102) binding to empty HLA-DR1) (relative to no AE peptide = 1) in assay [7] was determined as 0.33. The Relative Release (fraction of positive control o.d.) in [8] was determined as 0.65. For the same molecule, in assay [9], the Relative Binding (of biotin-hMBP(90-102) to HLA-DR1) (fraction of positive control o.d.) is -0.03.
Take Ac-LRMKLPKPP-NH2 [AE401]: in assay [7], the Relative Enhancement (of biotin-hMBP(90-102) binding to empty HLA-DR1) (relative to no AE peptide = 1) stood at 4.29. Besides, the Relative Release (fraction of positive control o.d.) in assay [8] was found to be 0.16. Moreover, in assay [9], the Relative Binding (of biotin-hMBP(90-102) to HLA-DR1) (fraction of positive control o.d.) was found to be 0.45.
For the molecule Ac-MKLPKPPKPV-NH2 [AE403], the Relative Enhancement (of biotin-hMBP(90-102) binding to empty HLA-DR1) (relative to no AE peptide = 1) in [7] was found to be 0.47. In addition, in [8], the Relative Release (fraction of positive control o.d.) stood at 0.64. The Relative Binding (of biotin-hMBP(90-102) to HLA-DR1) (fraction of positive control o.d.) in assay [9] stood at 0.4.
On to KLPKSAKPVSQMR [AE103], for which the Relative Release (fraction of positive control o.d.) in assay [8] was 0.01.
For the molecule Ac-LPKSAKPV-NH2 [AE405], the Relative Enhancement (of biotin-hMBP(90-102) binding to empty HLA-DR1) (relative to no AE peptide = 1) in [7] was determined as 0.43. For the same molecule, the Relative Release (fraction of positive control o.d.) in [8] was determined as 0.11. Further, the Relative Binding (of biotin-hMBP(90-102) to HLA-DR1) (fraction of positive control o.d.) in assay [9] worked out at 0.57.
